Drawing on article PMC9482650, “Quantitative fragmentomics allow affinity mapping of interactomes” (Nature Communications, 2022), this text covers pKd for 2 molecules.

Chain of MAGI2_6, Q86UL8 (Q86UL8 1141-1229): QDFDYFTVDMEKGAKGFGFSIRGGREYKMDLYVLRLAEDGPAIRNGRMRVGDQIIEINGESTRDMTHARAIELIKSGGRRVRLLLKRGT
Chain of MAGI1_1, Q96QZ7 (Q96QZ7 1-106): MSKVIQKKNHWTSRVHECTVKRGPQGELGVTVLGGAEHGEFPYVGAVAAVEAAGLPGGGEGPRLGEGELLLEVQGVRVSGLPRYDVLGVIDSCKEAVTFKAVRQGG
Chain of FRMPD3, Q5JV73 (Q5JV73 12-100): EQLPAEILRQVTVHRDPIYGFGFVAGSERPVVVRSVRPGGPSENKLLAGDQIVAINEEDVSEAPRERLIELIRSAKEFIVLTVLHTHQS
Chain of GIPC2, Q8TF65 (Q8TF65 112-203): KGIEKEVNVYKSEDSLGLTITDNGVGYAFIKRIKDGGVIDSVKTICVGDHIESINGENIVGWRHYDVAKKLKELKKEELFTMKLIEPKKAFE
Chain of DLG4_1, P78352 (P78352 62-152): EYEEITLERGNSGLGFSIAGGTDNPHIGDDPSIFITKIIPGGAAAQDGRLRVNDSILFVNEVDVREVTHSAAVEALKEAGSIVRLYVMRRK
Chain of MAGI2_5, Q86UL8 (Q86UL8 915-1017): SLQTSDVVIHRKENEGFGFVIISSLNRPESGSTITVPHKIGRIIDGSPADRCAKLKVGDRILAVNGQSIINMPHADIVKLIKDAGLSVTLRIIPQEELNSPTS

In one assay the target is T1, ARHGAP21, Q5T5U3.
T1 sequence (Q5T5U3 45-169, limits assumed, looked up): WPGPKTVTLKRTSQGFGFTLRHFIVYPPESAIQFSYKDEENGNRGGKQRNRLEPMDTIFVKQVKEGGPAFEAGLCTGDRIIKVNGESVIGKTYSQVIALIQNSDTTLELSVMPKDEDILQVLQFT
As to the kind of experiment: holdup assay. Details: key: below the threshold = too weak to quantify, mostly under pKd 3.1 to 4. As to conditions: plain residues with an end cap or a label only (N-terminal biotin on a linker: ado-ado).
In the case of KSRVAFFEEL [NF2, P35240;P35240-1], the pKd result was “below the threshold”.

In a further assay the target is MAST2, Q6P0Q8. As to the kind of experiment: holdup assay. Details: key: below the threshold = too weak to quantify, mostly under pKd 3.1 to 4. As to conditions: plain residues with an end cap or a label only (N-terminal biotin on a linker: ado-ado).
Chain of MAST2, Q6P0Q8 (Q6P0Q8 1099-1202): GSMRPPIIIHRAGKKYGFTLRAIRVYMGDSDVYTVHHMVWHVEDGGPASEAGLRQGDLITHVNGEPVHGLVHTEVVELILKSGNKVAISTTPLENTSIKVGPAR
On to KRPEMTSSSV [MUC3A, MUC3B, Q02505;Q9H195], for which the negative-log Kd (pKd) was determined as 4.77.
Same read-out and setting: next, KSRVAFFEEL [NF2, P35240;P35240-1]: 4.97.

The target in another assay is T2, PARD3B_1, Q8TEW8.
T2 sequence (Q8TEW8 196-299, limits assumed, looked up): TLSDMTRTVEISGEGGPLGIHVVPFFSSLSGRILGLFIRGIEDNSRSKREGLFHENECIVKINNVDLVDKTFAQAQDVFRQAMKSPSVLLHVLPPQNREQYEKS
In words: holdup assay. The conditions noted are these: plain residues with an end cap or a label only (N-terminal biotin on a linker: ado-ado). Details: key: below the threshold = too weak to quantify, mostly under pKd 3.1 to 4.
For the molecule KRPEMTSSSV [MUC3A, MUC3B, Q02505;Q9H195], the pKd result is given as “below the threshold”.

Another assay deals with NHERF4_1, Q86UT5-2. In words: holdup assay. As to conditions: plain residues with an end cap or a label only (N-terminal biotin on a linker: ado-ado). Set-up: key: below the threshold = too weak to quantify, mostly under pKd 3.1 to 4.
Chain of NHERF4_1, Q86UT5-2 (Q86UT5 other isoform, or with tags, fused parts or gaps): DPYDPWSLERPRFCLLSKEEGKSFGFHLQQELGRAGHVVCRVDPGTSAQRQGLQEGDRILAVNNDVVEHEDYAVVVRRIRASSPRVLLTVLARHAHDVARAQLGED
For the molecule KRPEMTSSSV [MUC3A, MUC3B, Q02505;Q9H195], the negative-log Kd (pKd) amounted to 3.58.
On the same count and under the same terms, next, KSRVAFFEEL [NF2, P35240;P35240-1]: 4.31.

The target in the next assay is T3, LNX2_3, Q8N448.
T3 sequence (Q8N448 463-564, limits assumed, looked up): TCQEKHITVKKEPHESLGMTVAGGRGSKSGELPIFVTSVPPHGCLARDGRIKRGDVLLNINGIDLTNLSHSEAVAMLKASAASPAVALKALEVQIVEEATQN
In words: holdup assay. Details: key: below the threshold = too weak to quantify, mostly under pKd 3.1 to 4. The conditions noted are these: plain residues with an end cap or a label only (N-terminal biotin on a linker: ado-ado).
For the molecule KRPEMTSSSV [MUC3A, MUC3B, Q02505;Q9H195], the negative-log Kd (pKd) result is “below the threshold”.
Regarding KSRVAFFEEL [NF2, P35240;P35240-1], the pKd result is “below the threshold”.

The next assay has as its target DLG4_1, P78352. In words: holdup assay. Set-up: key: below the threshold = too weak to quantify, mostly under pKd 3.1 to 4. As to conditions: plain residues with an end cap or a label only (N-terminal biotin on a linker: ado-ado).
For KRPEMTSSSV [MUC3A, MUC3B, Q02505;Q9H195], the pKd entry is on record as “below the threshold”.

A further assay has as its target MAGI1_1, Q96QZ7. As to the kind of experiment: holdup assay. Set-up: key: below the threshold = too weak to quantify, mostly under pKd 3.1 to 4. As to conditions: plain residues with an end cap or a label only (N-terminal biotin on a linker: ado-ado).
As to KRPEMTSSSV [MUC3A, MUC3B, Q02505;Q9H195], the pKd entry was “below the threshold”.
Same read-out and setting: for KSRVAFFEEL [NF2, P35240;P35240-1] the value was “below the threshold”.

Another assay addresses GIPC2, Q8TF65. As to the kind of experiment: holdup assay. Details: key: below the threshold = too weak to quantify, mostly under pKd 3.1 to 4. The conditions noted are these: plain residues with an end cap or a label only (N-terminal biotin on a linker: ado-ado).
With KRPEMTSSSV [MUC3A, MUC3B, Q02505;Q9H195], the pKd is 3.73.

Another assay deals with T4, CARD11, Q9BXL7.
T4 sequence (Q9BXL7 662-765, limits assumed, looked up): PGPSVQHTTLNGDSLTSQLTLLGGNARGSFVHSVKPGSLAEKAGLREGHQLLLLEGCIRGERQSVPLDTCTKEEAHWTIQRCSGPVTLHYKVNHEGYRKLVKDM
As to the kind of experiment: holdup assay. Set-up: key: below the threshold = too weak to quantify, mostly under pKd 3.1 to 4. As to conditions: plain residues with an end cap or a label only (N-terminal biotin on a linker: ado-ado).
As to KRPEMTSSSV [MUC3A, MUC3B, Q02505;Q9H195], the negative logarithm of the Kd (pKd) was 1.75.
The same measure, in the same setting: for KSRVAFFEEL [NF2, P35240;P35240-1] the value was “below the threshold”.

The target in a further assay is T5, RADIL, Q96JH8.
T5 sequence (Q96JH8 971-1071, limits assumed, looked up): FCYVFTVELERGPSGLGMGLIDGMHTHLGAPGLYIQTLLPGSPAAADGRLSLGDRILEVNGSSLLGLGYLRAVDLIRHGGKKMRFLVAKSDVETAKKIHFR
As to the kind of experiment: holdup assay. Details: key: below the threshold = too weak to quantify, mostly under pKd 3.1 to 4. As to conditions: plain residues with an end cap or a label only (N-terminal biotin on a linker: ado-ado).
Turning to KRPEMTSSSV [MUC3A, MUC3B, Q02505;Q9H195], the pKd result is on record as “below the threshold”.
The molecule KSRVAFFEEL [NF2, P35240;P35240-1] gave a pKd of 4.44.

The target in another assay is LIMK2, P53671. In words: holdup assay. Details: key: below the threshold = too weak to quantify, mostly under pKd 3.1 to 4. As to conditions: plain residues with an end cap or a label only (N-terminal biotin on a linker: ado-ado).
Chain of LIMK2, P53671 (P53671 143-248): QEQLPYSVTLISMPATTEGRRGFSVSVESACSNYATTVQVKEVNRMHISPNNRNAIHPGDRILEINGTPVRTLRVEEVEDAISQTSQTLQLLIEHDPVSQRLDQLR
Take KSRVAFFEEL [NF2, P35240;P35240-1]: the negative logarithm of the Kd (pKd) result was “below the threshold”.

The next assay deals with PTPN3, P26045. As to the kind of experiment: holdup assay. As to conditions: plain residues with an end cap or a label only (N-terminal biotin on a linker: ado-ado). Details: key: below the threshold = too weak to quantify, mostly under pKd 3.1 to 4.
Chain of PTPN3, P26045 (P26045 505-587): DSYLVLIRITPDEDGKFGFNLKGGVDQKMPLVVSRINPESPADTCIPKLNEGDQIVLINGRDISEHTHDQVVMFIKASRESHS
For the molecule KSRVAFFEEL [NF2, P35240;P35240-1], the pKd was found to be 4.22.

Another assay addresses FRMPD3, Q5JV73. As to the kind of experiment: holdup assay. Set-up: key: below the threshold = too weak to quantify, mostly under pKd 3.1 to 4. As to conditions: plain residues with an end cap or a label only (N-terminal biotin on a linker: ado-ado).
Take KRPEMTSSSV [MUC3A, MUC3B, Q02505;Q9H195]: the negative-log Kd (pKd) result is given as “below the threshold”.

In the next assay the target is GRASP, Q7Z6J2. As to the kind of experiment: holdup assay. Details: key: below the threshold = too weak to quantify, mostly under pKd 3.1 to 4. As to conditions: plain residues with an end cap or a label only (N-terminal biotin on a linker: ado-ado).
Chain of GRASP, Q7Z6J2 (Q7Z6J2 96-193): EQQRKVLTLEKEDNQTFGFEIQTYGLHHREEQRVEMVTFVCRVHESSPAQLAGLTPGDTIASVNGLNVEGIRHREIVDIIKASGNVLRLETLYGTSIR
As to KSRVAFFEEL [NF2, P35240;P35240-1], the pKd is 4.08.

The target in the next assay is T6, MPP2, Q14168.
T6 sequence (Q14168 180-250, limits assumed, looked up): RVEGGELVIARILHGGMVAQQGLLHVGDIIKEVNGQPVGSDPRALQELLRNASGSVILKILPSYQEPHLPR
In words: holdup assay. Set-up: key: below the threshold = too weak to quantify, mostly under pKd 3.1 to 4. As to conditions: plain residues with an end cap or a label only (N-terminal biotin on a linker: ado-ado).
Take KRPEMTSSSV [MUC3A, MUC3B, Q02505;Q9H195]: the pKd entry is listed as “below the threshold”.
On to KSRVAFFEEL [NF2, P35240;P35240-1], for which the pKd result is “below the threshold”.

For a further assay, the target named is T7, LIN7A, O14910.
T7 sequence (O14910 103-200, limits assumed, looked up): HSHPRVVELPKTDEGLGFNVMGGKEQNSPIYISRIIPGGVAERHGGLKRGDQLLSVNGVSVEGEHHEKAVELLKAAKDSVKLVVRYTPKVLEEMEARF
As to the kind of experiment: holdup assay. Set-up: key: below the threshold = too weak to quantify, mostly under pKd 3.1 to 4. As to conditions: plain residues with an end cap or a label only (N-terminal biotin on a linker: ado-ado).
In the case of KRPEMTSSSV [MUC3A, MUC3B, Q02505;Q9H195], the pKd entry was “below the threshold”.

The target of a further assay is Inadl_3, Q8NI35. As to the kind of experiment: holdup assay. As to conditions: plain residues with an end cap or a label only (N-terminal biotin on a linker: ado-ado). Set-up: key: below the threshold = too weak to quantify, mostly under pKd 3.1 to 4.
Chain of Inadl_3, Q8NI35 (Q8NI35 359-469): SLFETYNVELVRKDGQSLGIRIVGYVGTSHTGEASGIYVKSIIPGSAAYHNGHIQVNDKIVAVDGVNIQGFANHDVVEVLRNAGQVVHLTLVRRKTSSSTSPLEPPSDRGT
With KRPEMTSSSV [MUC3A, MUC3B, Q02505;Q9H195], the pKd entry is listed as “below the threshold”.
Turning to KSRVAFFEEL [NF2, P35240;P35240-1], the pKd came out at 4.28.

A further assay has as its target MAGI2_5, Q86UL8. As to the kind of experiment: holdup assay. The conditions noted are these: plain residues with an end cap or a label only (N-terminal biotin on a linker: ado-ado). Details: key: below the threshold = too weak to quantify, mostly under pKd 3.1 to 4.
Consider KSRVAFFEEL [NF2, P35240;P35240-1], for which the pKd entry was “below the threshold”.

For another assay, the target named is ARHGEF12, Q9NZN5-2. In words: holdup assay. Set-up: key: below the threshold = too weak to quantify, mostly under pKd 3.1 to 4. The conditions noted are these: plain residues with an end cap or a label only (N-terminal biotin on a linker: ado-ado).
Chain of ARHGEF12, Q9NZN5-2 (Q9NZN5 other isoform, or with tags, fused parts or gaps): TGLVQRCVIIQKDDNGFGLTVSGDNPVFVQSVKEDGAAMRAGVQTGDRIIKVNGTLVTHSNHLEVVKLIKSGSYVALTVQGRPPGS
Molecule KSRVAFFEEL [NF2, P35240;P35240-1] returned a pKd of 3.91.

For the next assay, the target named is DLG2_2, Q15700. As to the kind of experiment: holdup assay. Set-up: key: below the threshold = too weak to quantify, mostly under pKd 3.1 to 4. As to conditions: plain residues with an end cap or a label only (N-terminal biotin on a linker: ado-ado).
Chain of DLG2_2, Q15700 (Q15700 189-283): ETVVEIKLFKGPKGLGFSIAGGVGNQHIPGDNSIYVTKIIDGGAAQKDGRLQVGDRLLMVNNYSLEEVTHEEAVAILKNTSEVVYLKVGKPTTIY
For the molecule KRPEMTSSSV [MUC3A, MUC3B, Q02505;Q9H195], the pKd was 3.54.

Another assay concerns the target MAGI2_6, Q86UL8. As to the kind of experiment: holdup assay. Set-up: key: below the threshold = too weak to quantify, mostly under pKd 3.1 to 4. As to conditions: plain residues with an end cap or a label only (N-terminal biotin on a linker: ado-ado).
The molecule KRPEMTSSSV [MUC3A, MUC3B, Q02505;Q9H195] yielded a pKd of 3.66.
The same measure, in the same setting: next, KSRVAFFEEL [NF2, P35240;P35240-1]: 4.05.

Another assay addresses T8, FRMPD1, Q5SYB0.
T8 sequence (Q5SYB0 52-145, limits assumed, looked up): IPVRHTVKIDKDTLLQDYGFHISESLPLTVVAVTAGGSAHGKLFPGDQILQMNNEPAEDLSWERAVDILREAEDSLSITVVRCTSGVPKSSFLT
As to the kind of experiment: holdup assay. Details: key: below the threshold = too weak to quantify, mostly under pKd 3.1 to 4. The conditions noted are these: plain residues with an end cap or a label only (N-terminal biotin on a linker: ado-ado).
Regarding KSRVAFFEEL [NF2, P35240;P35240-1], the pKd result was “below the threshold”.

In the next assay the target is LDB3, O75112. As to the kind of experiment: holdup assay. Details: key: below the threshold = too weak to quantify, mostly under pKd 3.1 to 4. The conditions noted are these: plain residues with an end cap or a label only (N-terminal biotin on a linker: ado-ado).
Chain of LDB3, O75112 (O75112 1-94): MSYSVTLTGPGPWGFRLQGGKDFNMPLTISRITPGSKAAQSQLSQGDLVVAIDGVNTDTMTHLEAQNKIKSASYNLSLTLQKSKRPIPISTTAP
As to KRPEMTSSSV [MUC3A, MUC3B, Q02505;Q9H195], the pKd result is “below the threshold”.

The target in a further assay is GRIP2_6, Q9C0E4. In words: holdup assay. Set-up: key: below the threshold = too weak to quantify, mostly under pKd 3.1 to 4. As to conditions: plain residues with an end cap or a label only (N-terminal biotin on a linker: ado-ado).
Chain of GRIP2_6, Q9C0E4 (Q9C0E4 648-740): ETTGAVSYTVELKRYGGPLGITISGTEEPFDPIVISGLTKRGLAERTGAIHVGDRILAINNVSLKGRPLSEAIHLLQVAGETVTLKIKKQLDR
Take KRPEMTSSSV [MUC3A, MUC3B, Q02505;Q9H195]: the pKd entry is “below the threshold”.

In a further assay the target is Inadl_10, Q8NI35. In words: holdup assay. As to conditions: plain residues with an end cap or a label only (N-terminal biotin on a linker: ado-ado). Details: key: below the threshold = too weak to quantify, mostly under pKd 3.1 to 4.
Chain of Inadl_10, Q8NI35 (Q8NI35 1673-1763): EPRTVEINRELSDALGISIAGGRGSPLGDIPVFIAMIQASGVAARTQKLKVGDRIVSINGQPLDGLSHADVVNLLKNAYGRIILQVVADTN
Turning to KRPEMTSSSV [MUC3A, MUC3B, Q02505;Q9H195], the pKd entry is recorded as “below the threshold”.
Take KSRVAFFEEL [NF2, P35240;P35240-1]: the pKd entry is on record as “below the threshold”.

The target in a further assay is Inadl_8, Q8NI35. As to the kind of experiment: holdup assay. As to conditions: plain residues with an end cap or a label only (N-terminal biotin on a linker: ado-ado). Details: key: below the threshold = too weak to quantify, mostly under pKd 3.1 to 4.
Chain of Inadl_8, Q8NI35 (Q8NI35 1425-1530): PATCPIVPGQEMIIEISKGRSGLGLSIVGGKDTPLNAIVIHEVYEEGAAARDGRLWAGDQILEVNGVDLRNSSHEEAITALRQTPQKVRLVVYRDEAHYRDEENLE
Take KSRVAFFEEL [NF2, P35240;P35240-1]: the pKd entry is given as “below the threshold”.

A word on the pKd: it is the negative decadic logarithm of the Kd, by convention in mol/L.
